Patent US6864224 (BROWN UNIVERSITY RESEARCH FOUNDATION, dated 2005)

Target: endogenous Raf-1 of Rat-1 cells (rat (Rat-1 cells), UniProt P11345 1-648)
Assay: co-immunoprecipitation of endogenous proteins with RKIP antiserum
Source text: For co-precipitation experiments of endogenous proteins, 2 ×10^7 Rat-1 cells were lysed by sonication in PBS, and the immunoprecipitates were washed 4 times with PBS.

- binding result: binds
B1: endogenous RKIP of Rat-1 cells (other, rat (Rat-1 cells), UniProt P31044 2-187, looked up)
chain: AADISQWAGPLSLQEVDEPPQHALRVDYGGVTVDELGKVLTPTQVMNRPSSISWDGLDPGKLYTLVLTDPDAPSRKDPKFREWHHFLVVNMKGNDISSGTVLSEYVGSGPPKDTGLHRYVWLVYEQEQPLNCDEPILSNKSGDNRGKFKVESFRKKYHLGAPVAGTCFQAEWDDSVPKLHDQLAGK
notes: Endogenous protein in cell lysates
